Where two headings read alike, the source gives them in different places.
Key:
Test in all cases: two-hybrid library CCmax;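 note: natural log of median RNA to DNA barcode read ratio; higher means stronger binding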
[1] = molecular target: T1, 4H918-AA; settings: mean of both orientations
T1 chain: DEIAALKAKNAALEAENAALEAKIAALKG

[2] = molecular target: T2, 4H717-AA; settings: mean of both orientations
T2 chain: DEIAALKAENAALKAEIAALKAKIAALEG

[3] = molecular target: T3, 4H797-AA; settings: mean of both orientations
T3 chain: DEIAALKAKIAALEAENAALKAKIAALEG

[4] = molecular target: T4, 4H568-AA
T4 chain: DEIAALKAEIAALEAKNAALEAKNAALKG

[5] = molecular target: T5, 4H687-AA; settings: mean of both orientations
T5 chain: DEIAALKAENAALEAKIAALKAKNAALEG

[6] = molecular target: T6, 4H883-AA; settings: mean of both orientations
T6 chain: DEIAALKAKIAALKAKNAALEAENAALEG

[7] = molecular target: T7, 4H967-AA; settings: mean of both orientations
T7 chain: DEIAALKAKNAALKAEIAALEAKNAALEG

[8] = molecular target: T8, 4H953-AA; settings: mean of both orientations
T8 chain: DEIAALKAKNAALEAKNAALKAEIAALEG

[9] = molecular target: T9, 4H3410-AA; settings: mean of both orientations
T9 chain: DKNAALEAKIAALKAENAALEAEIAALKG

[10] = molecular target: T10, 4H3016-AA; settings: mean of both orientations
T10 chain: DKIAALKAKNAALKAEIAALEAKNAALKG

[11] = molecular target: T11, 4H3165-AA; settings: mean of both orientations
T11 chain: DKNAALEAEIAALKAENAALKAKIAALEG

[12] = molecular target: T12, 4H2109-AA; settings: mean of both orientations
T12 chain: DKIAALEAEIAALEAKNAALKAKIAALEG

[13] = molecular target: T13, 4H2330-AA
T13 chain: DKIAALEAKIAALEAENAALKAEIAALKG

[14] = molecular target: T14, 4H745-AA; settings: mean of both orientations
T14 chain: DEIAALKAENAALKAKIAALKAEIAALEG

[15] = molecular target: T15, 4H2253-AA; settings: mean of both orientations
T15 chain: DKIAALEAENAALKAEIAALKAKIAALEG

[16] = molecular target: T16, 4H2473-AA; settings: mean of both orientations
T16 chain: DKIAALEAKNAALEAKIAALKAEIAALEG

[17] = molecular target: T17, 4H310-AA; settings: mean of both orientations
T17 chain: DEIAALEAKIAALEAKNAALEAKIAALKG

[18] = molecular target: T18, 4H485-AA; settings: mean of both orientations
T18 chain: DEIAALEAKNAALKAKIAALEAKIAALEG

[19] = molecular target: T19, 4H3590-AA; settings: mean of both orientations
T19 chain: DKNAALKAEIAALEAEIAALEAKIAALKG

[20] = molecular target: T20, 4H1877-AA; settings: mean of both orientations
T20 chain: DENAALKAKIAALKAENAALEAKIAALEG

[21] = molecular target: T21, 4H909-AA; settings: mean of both orientations
T21 chain: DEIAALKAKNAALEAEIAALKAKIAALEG

[22] = molecular target: T22, 4H2649-AA; settings: mean of both orientations
T22 chain: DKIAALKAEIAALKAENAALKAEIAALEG

[23] = molecular target: T23, 4H3697-AA; settings: mean of both orientations
T23 chain: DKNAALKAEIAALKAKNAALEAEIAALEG

[24] = molecular target: T24, 4H536-AA; settings: mean of both orientations
T24 chain: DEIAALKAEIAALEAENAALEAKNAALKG

[25] = molecular target: T25, 4H458-AA; settings: mean of both orientations
T25 chain: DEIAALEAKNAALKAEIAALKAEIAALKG

[26] = molecular target: T26, 4H891-AA; settings: mean of both orientations
T26 chain: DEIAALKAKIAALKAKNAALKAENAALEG

[27] = molecular target: T27, 4H3395-AA; settings: mean of both orientations
T27 chain: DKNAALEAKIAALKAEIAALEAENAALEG

[28] = molecular target: T28, 4H2274-AA; settings: mean of both orientations
T28 chain: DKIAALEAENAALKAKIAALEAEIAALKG

[29] = molecular target: T29, 4H850-AA; settings: mean of both orientations
T29 chain: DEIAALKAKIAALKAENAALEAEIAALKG

[30] = molecular target: T30, 4H3865-AA; settings: mean of both orientations
T30 chain: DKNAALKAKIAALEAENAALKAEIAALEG

[31] = molecular target: T31, 4H3130-AA; settings: mean of both orientations
T31 chain: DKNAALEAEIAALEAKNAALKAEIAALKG

[32] = molecular target: T32, 4H2698-AA; settings: mean of both orientations
T32 chain: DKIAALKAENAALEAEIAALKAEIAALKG

[33] = molecular target: T33, 4H2162-AA; settings: mean of both orientations
T33 chain: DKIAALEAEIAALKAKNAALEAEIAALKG

[34] = molecular target: T34, 4H3753-AA; settings: mean of both orientations
T34 chain: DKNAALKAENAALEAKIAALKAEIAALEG

[35] = molecular target: T35, 4H1842-AA
T35 chain: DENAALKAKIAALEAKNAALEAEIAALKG

[36] = molecular target: T36, 4H1864-AA
T36 chain: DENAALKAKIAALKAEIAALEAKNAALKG

[37] = molecular target: T37, 4H930-AA; settings: mean of both orientations
T37 chain: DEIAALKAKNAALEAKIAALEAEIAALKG

[38] = molecular target: T38, 4H710-AA; settings: mean of both orientations
T38 chain: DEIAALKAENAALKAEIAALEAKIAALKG

[39] = molecular target: T39, 4H3120-AA; settings: mean of both orientations
T39 chain: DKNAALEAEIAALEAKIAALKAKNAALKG

[40] = molecular target: T40, 4H2725-AA
T40 chain: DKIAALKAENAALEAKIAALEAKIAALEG

[41] = molecular target: T41, 4H94-AA; settings: mean of both orientations
T41 chain: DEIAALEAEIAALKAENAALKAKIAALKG

[42] = molecular target: T42, 4H2865-AA; settings: mean of both orientations
T42 chain: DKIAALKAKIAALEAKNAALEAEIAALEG

[43] = molecular target: T43, 4H2438-AA; settings: mean of both orientations
T43 chain: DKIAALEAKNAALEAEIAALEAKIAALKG

[44] = molecular target: T44, 4H3009-AA; settings: mean of both orientations
T44 chain: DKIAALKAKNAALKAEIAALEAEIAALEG

[45] = molecular target: T45, 4H570-AA; settings: mean of both orientations
T45 chain: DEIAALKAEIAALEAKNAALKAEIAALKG

[46] = molecular target: T46, 4H2389-AA; settings: mean of both orientations
T46 chain: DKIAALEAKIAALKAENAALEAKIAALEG

[47] = molecular target: T47, 4H3381-AA; settings: mean of both orientations
T47 chain: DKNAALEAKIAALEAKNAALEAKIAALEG

[48] = molecular target: T48, 4H629-AA; settings: mean of both orientations
T48 chain: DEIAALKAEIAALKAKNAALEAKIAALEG

Binder: DEIAALKAEIAALEAKNAALEAKNAALKG [4H568-AA]
- interaction score [1]: -1.24
- interaction score [2]: -1.75
- interaction score [3]: -1.39
- interaction score [4]: -0.405
- interaction score [5]: -1.51
- interaction score [6]: 2.12
- interaction score [7]: -0.838
- interaction score [8]: -1.78

Binder: DENAALKAKIAALEAKNAALEAEIAALKG [4H1842-AA]
- interaction score [9]: -0.8
- interaction score [10]: -1.43
- interaction score [11]: -1.43
- interaction score [12]: -1.43
- interaction score [13]: -1.35
- interaction score [14]: -1.86
- interaction score [15]: -1.72
- interaction score [16]: -1.44
- interaction score [17]: 0.761
- interaction score [18]: -1.94
- interaction score [19]: -0.391
- interaction score [20]: -1.15
- interaction score [21]: -1.17
- interaction score [22]: -1.27
- interaction score [23]: -1.01
- interaction score [3]: -1.34
- interaction score [24]: -1.7
- interaction score [25]: -1.14
- interaction score [26]: -1.42
- interaction score [27]: -2.04
- interaction score [28]: -1.6
- interaction score [29]: 0.256
- interaction score [30]: -0.938
- interaction score [31]: 0.65
- interaction score [32]: -0.986
- interaction score [33]: -1.21
- interaction score [34]: -1.52
- interaction score [35]: 1.88
- interaction score ([36]; mean of both orientations): -1.82
- interaction score [37]: -1.21
- interaction score [38]: -1.63
- interaction score [39]: -1.44
- interaction score [40]: -1.86
- interaction score [41]: -1.17
- interaction score [42]: -0.0645
- interaction score [43]: -1.14
- interaction score [44]: -1.78
- interaction score [45]: 0.585
- interaction score [46]: -1.52
- interaction score [47]: -1.2
- interaction score [48]: -1.59

Binder: DENAALKAKIAALKAEIAALEAKNAALKG [4H1864-AA]
- interaction score [9]: -1.5
- interaction score [10]: -1.47
- interaction score [11]: -1.47
- interaction score [12]: -0.599
- interaction score ([13]; mean of both orientations): -1.49
- interaction score [14]: -1.35
- interaction score [15]: -1.42
- interaction score [16]: -1.22
- interaction score [17]: -1.48
- interaction score [18]: -0.878
- interaction score [19]: 1.23
- interaction score [20]: -1.45
- interaction score [21]: -1.38
- interaction score [22]: -1.17
- interaction score [23]: -1.57
- interaction score [3]: -2.09
- interaction score [24]: 0.437
- interaction score [25]: -1.21
- interaction score [26]: -0.897
- interaction score [27]: 0.321
- interaction score [28]: -1.75
- interaction score [29]: 0.223
- interaction score [30]: -1.65
- interaction score [31]: -0.716
- interaction score [32]: -0.664
- interaction score [33]: -1.67
- interaction score [34]: 0.231
- interaction score [36]: 0.981
- interaction score [37]: -1.41
- interaction score [38]: 1.32
- interaction score [39]: 0.774
- interaction score ([40]; mean of both orientations): -0.938
- interaction score [41]: -0.986
- interaction score [42]: -1.19
- interaction score [43]: 0.434
- interaction score [44]: -0.905
- interaction score [45]: -0.57
- interaction score [46]: 0.806
- interaction score [47]: -1.63
- interaction score [48]: -1.52

Source: publication PMC10397247
